Measurements: US6991794B1, “Progenitor cell preservation factors and methods for and products of their use” (ImClone Systems Incorporated, priority 1997, dated 2006)

Key:
[1] = test system: untransfected 3T3 cells; test: untransfected parent 3T3 control cells (XTT); type: cell-based; conditions: Example 5 serum-free conditions
Procedure: Specifically, 3T3 cells cultured in tissue culture plates (Becton Dickinson Labware, Lincoln Park, N.J.) were removed from the plates by washing cells twice in Hank's buffered saline solution (HBSS; Gibco Laboratories, Grand Island, N.Y.). Non-enzymatic cell dissociation buffer (Gibco) was added for 15 minutes at room temperature. The resulting cells were washed in medium. FLT3 3T3 cells were cultured at a final concentration of 3,000 cells per well in a volume of 100 μL of serum-defined medium containing […] rhIL1-α, 10% AIMV (Gibco, Grand Island, N.Y.) and 90% Dulbecco's modification of Eagle's medium (DMEM; Gibco) in 96 well plates. […] Proliferation and cell survival was quantitated by addition of XTT (2, 3-bis[Methoxy-4-nitro-5sulfophenyl]-2H-tetrazolium-5 carboxanilide inner salt) (Diagnostic Chemicals Ltd, Charlottetown, Prince Edward Island, Canada), which is a […] cleaved by actively respiring cells (Roehm et al., J. Immunol. Methods 142: 257-265, 1991). Proliferation and cell survival was quantitated spectrophotometrically using a Vmax kinetic plate reader (Molecular Devices Corp., Mountain View, Calif.), and recorded as either relative activity (units/mL) or as specific activity (units/mg). One unit of biological activity was defined as the reciprocal dilution at which half-maximal stimulation of cells is detected. […]

[2] = test system: Flt3-expressing 3T3 cells; test: Flt3 3T3 assay during purification of Pv-FRIL; type: cell-based; conditions: 80,000-fold purification; IL1-α or PHA-LCM as co-factor
Procedure: To create factor-dependence for receptor-transfected 3T3 cells, growth conditions were compromised to permit only ligands to rescue cells from death. To do this, 3T3 cell lines were assayed in 96 well plates (Becton Dickinson Labware, Lincoln Park, N.J.) containing 3,000 cells in 100 μL of serum-free medium consisting of 10% AIMV (Life Technologies) and 90% DMEM. In each experiment, samples were serially diluted two-fold across rows starting at a 1:10 dilution. Viable cells were quantitated after 3-5 days by XTT (2,3-bis[Methoxy-4-nitro-5sulfophenyl]-2H-tetrazolium-5 carboxanilide inner salt) (Sigma, St. Louis, Mo.) (Roehm et al., supra). Relative activity (units/ml) and specific activity (units/mg) are defined as the reciprocal dilution at which half-maximal stimulation of cells was detected.
Each batch of PHA-LCM was generated in serum-free medium with cells from individual normal donors. To start purification, the PHA-LCM with Flt3 3T3 activity was pooled in 30 liter lots with approximately 10^7 Flt3 3T3 units. Twenty-five liters of PHA-LCM was diafiltered into 50 mM Tris-HCl, pH 7.6, 50 mM NaCl and then concentrated to 2-2.5 liters by tangential flow ultrafiltration on a 10 kDa molecular weight cutoff membrane (Pellicon, Millipore, Bedford, Mass.). A Blue-sepharose FF (Pharmacia Biotech) column (10 cm×15 cm) was equilibrated with 50 mM Tris-HCl, pH 7.4,50 mM NaCl. […]

B1: Pv-FRIL: FRIL family mannose-binding lectin from Phaseolus vulgaris (red kidney bean), SEQ ID NO: 6 (protein)
chain: AQSLSFNFTKFDLDQKDLIFQGDATSTNNVLQLTKLDSGGNPVGASVGRVLFSAPFHLWENSMAVSSFETNLTIQISTPHPYYAADGFAFFLAPHDTVIPPNSWGKFLGLYSNVFRNSPTSENQSFGDVNTDSRVVAVEFDTFPNANIDPNYRHIGIDVNSIKSKETARWEWQNGKTATARISYNSASKKSTVTTFYPGMEVVALSHDVDLHAELPEWVRVGLSASTGEEKQKNTIISWSFTSSLKNNEVKEPKEDMYIANVVRSYTWINDVLSYISNKMYDALNNNHKYVRCSTCMLFMKKK
Question: Which “response of parent untransfected 3T3 cells” value [1] does the source give for B1 here?
Answer: did not

Question: And the “specific activity of purified fraction” value [2]?
Answer: 244,500 units/mg
